Reference: the Human Domainome abundance scans (Beltran et al. 2025)
± gives the uncertainty stated by the source.

B1: Connector enhancer of kinase suppressor of ras 2, residues 9 to 71; numbered along this chain, Q8WXI2 (parent)
chain: SKWSPSQVVDWMKGLDDCLQQYIKNFEREKISGDQLLRITHQELEDLGVSRIGHQELILEAVD

Variants of: B1
Test: abundance fitness (aPCA) (normalised: wild type 0, dead -1); higher = more abundant; growth selection in yeast, the domain comes from the species named
Conditions: Homo sapiens

Row | Variant | abundance fitness
1 | I23R | -0.18 ± 0.021
2 | I23E | -0.412 ± 0.036
3 | I23M | -0.34 ± 0.05
4 | I23P | -0.673 ± 0.059
5 | I23G | -0.344 ± 0.024
6 | I23Q | -0.378 ± 0.044
7 | I23N | -0.475 ± 0.044
8 | I23W | -0.313 ± 0.033
9 | Q20I | -0.247 ± 0.063
10 | Q20C | -0.325 ± 0.042
11 | Q20H | 0.049 ± 0.032
12 | Q20S | -0.148 ± 0.024
13 | Q20R | -0.214 ± 0.024
14 | Q20K | -0.148 ± 0.025
15 | Q20D | -0.259 ± 0.033
16 | Q20Y | -0.204 ± 0.042
17 | Q20A | -0.177 ± 0.028
18 | Q20W | -0.133 ± 0.031
19 | Q20L | -0.121 ± 0.023
20 | Q20E | -0.31 ± 0.043
21 | Q20P | -0.805 ± 0.051

Row | Variant | abundance fitness
22 | Q20M | -0.17 ± 0.029
23 | Q20G | -0.152 ± 0.023
24 | Q20N | -0.117 ± 0.043
25 | Q20F | -0.179 ± 0.039
26 | L15T | -0.427 ± 0.032
27 | L15S | -0.539 ± 0.031
28 | L15N | -0.512 ± 0.051
29 | L15D | -0.702 ± 0.05
30 | L15W | -0.266 ± 0.04
31 | L15E | -0.371 ± 0.027
32 | L15P | -0.712 ± 0.043
33 | L15V | -0.42 ± 0.027
34 | L15R | -0.535 ± 0.037
35 | L15H | -0.781 ± 0.067
36 | L15Y | -0.636 ± 0.067
37 | L15K | -0.48 ± 0.032
38 | L15A | -0.652 ± 0.034
39 | L15G | -0.675 ± 0.044
40 | L15C | -0.552 ± 0.059
41 | L15I | -0.446 ± 0.046
42 | L15Q | -0.164 ± 0.035

Row | Variant | abundance fitness
43 | K30Y | -0.391 ± 0.053
44 | K30G | -0.048 ± 0.026
45 | K30N | -0.075 ± 0.057
46 | K30T | -0.419 ± 0.04
47 | K30H | -0.04 ± 0.043
48 | K30C | -0.097 ± 0.028
49 | K30E | -0.105 ± 0.038
50 | K30V | -0.519 ± 0.031
51 | K30D | -0.225 ± 0.035
52 | K30A | -0.069 ± 0.027
53 | K30S | -0.087 ± 0.027
54 | K30F | -0.324 ± 0.04
55 | K30W | -0.572 ± 0.063
56 | K30M | -0.113 ± 0.041
57 | K30L | -0.225 ± 0.028
58 | K30Q | -0.036 ± 0.037
59 | D34P | -0.105 ± 0.031
60 | D34G | -0.109 ± 0.03
61 | D34H | -0.168 ± 0.071
62 | D34K | -0.056 ± 0.057
63 | D34E | 0.055 ± 0.037

Row | Variant | abundance fitness
64 | D34N | -0.087 ± 0.039
65 | D34F | -0.281 ± 0.056
66 | D34I | -0.213 ± 0.055
67 | D34M | -0.108 ± 0.037
68 | D34A | 0.037 ± 0.028
69 | D34L | -0.128 ± 0.025
70 | R28K | -0.063 ± 0.033
71 | R28W | -0.638 ± 0.044
72 | R28E | -0.1 ± 0.043
73 | R28F | -0.453 ± 0.1
74 | R28D | -0.043 ± 0.052
75 | R28L | -0.15 ± 0.023
76 | R28Y | -0.28 ± 0.069
77 | R28A | -0.052 ± 0.026
78 | R28G | -0.262 ± 0.031
79 | R28T | -0.058 ± 0.032
80 | R28I | -0.099 ± 0.063
81 | R28N | -0.067 ± 0.051
82 | R28S | -0.056 ± 0.026
83 | R28M | -0.094 ± 0.03
84 | R28V | -0.159 ± 0.031
